Data published in article PMC10663505 (Nature Communications, 2023).

Target: the molecule itself
Assay: native gel or EMSA

B1: phosphorylated TBK1 (Native-PAGE of Supplementary Fig. S8a) (enzyme, UniProt Q9WUN2 1-729, looked up)
chain: MQSTSNHLWLLSDILGQGATANVFRGRHKKTGDLYAVKVFNNISFLRPVDVQMREFEVLKKLNHKNIVKLFAIEEETTTRHKVLIMEFCPCGSLYTVLEEPSNAYGLPESEFLIVLRDVVGGMNHLRENGIVHRDIKPGNIMRVIGEDGQSVYKLTDFGAARELEDDEQFVSLYGTEEYLHPDMYERAVLRKDHQKKYGATVDLWSVGVTFYHAATGSLPFRPFEGPRRNKEVMYKIITGKPSGAISGVQKAENGPIDWSGDMPLSCSLSQGLQALLTPVLANILEADQEKCWGFDQFFAETSDVLHRMVIHVFSLQHMTAHKIYIHSYNTAAVFHELVYKQTKIVSSNQELIYEGRRLVLELGRLAQHFPKTTEENPIFVTSREQLNTVGLRYEKISLPKIHPRYDLDGDASMAKAVTGVVCYACRTASTLLLYQELMRKGVRWLVELVKDDYNETVHKKTEVVITLDFCIRNIEKTVKVYEKLMKVNLEAAELGEISDIHTKLLRLSSSQGTIESSLQDISSRLSPGGLLADTWAHQEGTHPRDRNVEKLQVLLNCITEIYYQFKKDKAERRLAYNEEQIHKFDKQKLYYHATKAMSHFSEECVRKYEAFKDKSEEWMRKMLHLRKQLLSLTNQCFDIEEEVSKYQDYTNELQETLPQKMLAASGGVKHAMAPIYPSSNTLVEMTLGMKKLKEEMEGVVKELAENNHILERFGSLTMDGGLRNVDCL
modifications: phosphorylated (detected with the anti-phosphorylated TBK1 antibody)
notes: probably endogenous mouse TBK1
  stoichiometry N: 2
